Results: patent US5693476
Where “and” joins values, the source holds several entries; their conditions need not be identical. Identical values can stand only once.

Tests used:
[1] = target: GST-syntaxin 1A cytoplasmic domain fusion protein (Syn 1A11, amino acids 4-266), immobilized on glutathione agarose beads (Schistosoma japonicum; rat); test: 20S complex on GST-Syn 1A11 beads, ATP and MgCl2, Western blot densitometry
[2] = target: GST-syntaxin 1A cytoplasmic domain fusion protein (Syn 1A11, amino acids 4-266), immobilized on glutathione agarose beads (Schistosoma japonicum; rat); test: 20S complex assembly on GST-syntaxin beads with SNAP-25, VAMP, α-SNAP and NSF added together, ATPγS, 25° C., Western blot densitometry, FIG. 6A
[3] = target: GST-syntaxin 1A deletion mutant Syn 1A13 (amino acids 4-221) (Schistosoma japonicum; rat); test: 20S complex assembly on GST-syntaxin beads with all four proteins together, ATP, 18° C. overnight MgCl2, Western blot densitometry, FIG. 6B
[4] = target: GST-syntaxin 1A H3 domain construct Syn 1A16 (amino acids 191-266) (Schistosoma japonicum; rat); test: as above
[5] = target: GST-syntaxin 1A deletion mutant Syn 1A6 (amino acids 4-190) (Schistosoma japonicum; rat); test: as above
[6] = target: GST-syntaxin 1A deletion mutant Syn 1A17 (amino acids 4-240) (Schistosoma japonicum; rat); test: as above
[7] = target: GST-syntaxin 1A cytoplasmic domain fusion protein (Syn 1A11, amino acids 4-266), immobilized on glutathione agarose beads (Schistosoma japonicum; rat); test: as above
[8] = target: GST (glutathione-S-transferase) alone, immobilized on glutathione agarose beads (Schistosoma japonicum) [GST: P08515]; test: GST pull-down on glutathione agarose beads, Western blot (anti-α-SNAP), densitometry, FIG. 3
[9] = target: GST-SNAP-25, immobilized on glutathione agarose beads (Schistosoma japonicum; mouse); test: as above
[10] = target: GST-syntaxin 1A cytoplasmic domain fusion protein (Syn 1A11, amino acids 4-266), immobilized on glutathione agarose beads (Schistosoma japonicum; rat); test: as above
[11] = target: GST-VAMP (full cytoplasmic domain of VAMP), immobilized on glutathione agarose beads (Schistosoma japonicum; rat); test: as above
[12] = target: GST-syntaxin 1A cytoplasmic domain fusion protein (Syn 1A11, amino acids 4-266), immobilized on glutathione agarose beads (Schistosoma japonicum; rat); test: 20S complex on GST-Syn 1A11 beads, ATP and Mg++, Western blot densitometry

His-tagged α-SNAP (soluble NSF attachment protein), soluble recombinant, sequence (P81125 whole entry): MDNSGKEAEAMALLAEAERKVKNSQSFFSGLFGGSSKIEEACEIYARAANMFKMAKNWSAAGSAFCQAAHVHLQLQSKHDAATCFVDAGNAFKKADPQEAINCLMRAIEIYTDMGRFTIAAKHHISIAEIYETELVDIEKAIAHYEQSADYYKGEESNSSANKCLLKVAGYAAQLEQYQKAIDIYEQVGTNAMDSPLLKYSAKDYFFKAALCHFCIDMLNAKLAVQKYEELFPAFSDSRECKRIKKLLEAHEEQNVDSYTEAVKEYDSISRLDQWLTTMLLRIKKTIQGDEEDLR

| Substance | percent dissociated from syntaxin following ATP hydrolysis by NSF [1] | densitometry pixel value [2] | densitometry pixel value [3] | densitometry pixel value [4] | densitometry pixel value [5] | densitometry pixel value [6] | densitometry pixel value [7] | densitometry pixel value [8] | densitometry pixel value [9] | densitometry pixel value [10] | densitometry pixel value [11] | percent remaining associated with the GST-syntaxin beads [12] |
| --- | --- | --- | --- | --- | --- | --- | --- | --- | --- | --- | --- | --- |
| VAMP (vesicle-associated membrane protein; VAMP 2), soluble recombinant | 80% and 90% | 528 pixel value | 1560 pixel value | 951 pixel value | 0 pixel value | 903 pixel value | 133 pixel value | – | – | – | – | – |
| His-tagged α-SNAP (soluble NSF attachment protein), soluble recombinant (from UniProt P81125) | 70% and 90% | 1490 pixel value | 0 pixel value | 1540 pixel value | 0 pixel value | 793 pixel value | 331 pixel value | 0 pixel value | 33 pixel value | 1830 pixel value | 8 pixel value | – |
| SNAP-25 (synaptosomal-associated protein of 25 kDa), soluble recombinant | – | 839 pixel value | 1310 pixel value | 484 pixel value | 0 pixel value | 546 pixel value | 75 pixel value | – | – | – | – | 90% |
